Experiment [1] addresses T1, human CCR8 (human, UniProt P51685 1-355). Briefly: cell-based or functional assay.
The target in experiment [2] is T1, human CCR8. Briefly: flow cytometry, HUT78 cells (endogenous CCR8). On the procedure: In human activated T cells model, prior to mAb incubation, cells were first incubated with 200 nM of hCCL1 (R&D Systems, Minneapolis, MN, USA) or buffer PBS (Invitrogen by Thermofisher Scientific, Illkirch-Graffenstaden, France) supplemented by 2% Fetal Bovine Serum (Invitrogen by Thermofisher Scientific, Illkirch-Graffenstaden, France) and 2 mM EDTA (Invitrogen by Thermofisher Scientific, Illkirch-Graffenstaden, France) during 1 hour at 4° C. To determine EC50 value, 8 concentrations of anti-CCR8 mAb were tested. Unbound antibodies were washed away with PBS (Invitrogen by Thermofisher Scientific, Illkirch-Graffenstaden, France) supplemented by 2% Fetal Bovine Serum (Invitrogen by Thermofisher Scientific, Illkirch-Graffenstaden, France) and 2 mM EDTA (Invitrogen by Thermofisher Scientific, Illkirch-Graffenstaden, France). Subsequently, cells are centrifuged (5 min at 400 g) and bound antibody is detected with F(ab′)2-Goat anti-Mouse IgG (H+L) Cross-Adsorbed Secondary Antibody, Alexa Fluor 488 (dilution 1/500) (Invitrogen by Thermofisher Scientific, Illkirch-Graffenstaden, France) or with F(ab′)₂-Goat anti-Human IgG Fc Secondary Antibody, PE (Invitrogen by Thermofisher Scientific, Illkirch-Graffenstaden, France) (dilution 1/1000) at 4° C. for 30 min. Detection reagent is washed away and cells are centrifuged (5 min at 400 g) and resuspended in 30 μL PBS. Bound detection antibody is quantified on a MacsQuant16 (Miltenyi, Gladbach, Germany) (B1 or B2 channel, 5000 events per acquisition). During the experiment, the respective isotype mAb controls (mouse IgG1, mouse IgG2a, mouse IgG2b, mouse IgG3 or human IgG1) (Biolegend, Amsterdam, The Netherlands) are included to exclude any unspecific binding events. EC50 values were determined via nonlinear fit “log (agonist) vs.response—Variable slope (four parameters)” function of Graphpad prism. EC50 values were not constantly determined in the same experiments.
Anti-CCR8 mAb cellular reactivity was also evaluated on native human CCR8 from HUT78 cell line by flow cytometry. In Table 4.3, Mean Fluorescence Intensity (Fold change to isotype control), the percentage of labelled cells and EC50 in nM of some anti-CCR8 antibodies are presented.
In general terms: Flow cytometry measures light scatter and fluorescence of single cells or particles in a stream.

Experiment [3] has as its target T1, human CCR8. Kind of experiment: cell-based or functional assay. The source holds these as a separate data set.
The target in experiment [4] is T1, human CCR8. Briefly: cell-based or functional assay. This is another data set of the same source.
Experiment [5] addresses T1, human CCR8. Briefly: cell-based or functional assay. The source holds these as a separate data set.
In experiment [6] the target is T1, human CCR8. Kind of experiment: cell-based or functional assay. This is another data set of the same source.
Experiment [7] addresses T1, human CCR8. Briefly: cell-based or functional assay. The source holds these as a separate data set.
Experiment [8] concerns the target T2, human CCR8 with a SNAP-tag at the N-terminus (human, UniProt P51685 1-355, SNAP-tag labelled covalently with Lumi4-Terbium).
T2 construct: also called hCCR8 SNAP-tag; CCR8 SNAP-tag
Briefly: HTRF Tag-lite, inhibition of hCCL1-AF647 binding to SNAP-hCCR8 on HEK-293 cells. On the procedure: (§1) The inhibition of CCL1 binding to hCCR8 was evaluated with the Tag-Lite® technology from Cisbio (Revvity). Human CCR8 is engineered with a SNAP-tag at the N-terminus of the GPCR. hCCR8 SNAP-tag is transiently transfected on HEK-293 cell line using FuGene® (Promega, Madison, WI, USA). 48 hours after transfection, cells are labeled with the substrate Lumi4-Terbium® (Cisbio, Codolet, France) which covalently reacts with the SNAP-tag, for 1 h at 37° C. Thawed or freshly labeled cells are plated in a 384 low volume white plate (GREINER Bio-One, Courtaboeuf, France) (10000 cells/well/10 μl). […] The Kd was previously obtained in a saturation binding assay on the same cells. […] The plate is next incubated at 21° C. for 2 h. Detection of HTRF signal is performed on the multiplate reader EnVision (PerkinElmer, Waltham, MA, USA). The HTRF (665/620) ratio is calculated by EnVision software, the data exported are considered as the total binding. The specific binding is calculated then by subtracting the non-specific signal from the total binding. The Ki and IC₅₀ are calculated using the “One site-Fit Ki” and “One site-FitlogIC50” from GraphPad Prism 9 (Graphpad Software, San Diego, CA, USA), respectively.

The target in the next experiment is T3, pwt1 (none (unmodified peptide)).
T3 construct: also called unmodified CCR8 N-terminal peptide
T3 sequence (peptide, as listed by the source): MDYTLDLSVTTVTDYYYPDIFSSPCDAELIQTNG
Briefly: ELISA on coated peptide [cont.]. An outline of the steps:
(§2)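 Wells were coated with CCR8-related peptides at 500 ng/ml in carbonate/bicarbonate buffer. Anti-CCR8 mAbs were tested from 1 μg/mL in 1/10 dilutions and bound for 90 min at room temperature. Detection used TMB for 15 min with an optical density read-out.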

For the next experiment, the target named is T4, pm4 (sulfated tyrosine(s) among Y15, Y16, Y17; which ones is not told (the underlining of Table 1 is lost in the text)).
T4 construct: also called sulfated CCR8 N-terminal peptide pm4
T4 sequence (peptide, as listed by the source): as above
Kind of experiment: ELISA on coated peptide [cont.]. The method in brief: as §2
A general note: An ELISA detects its analyte on a solid surface through an enzyme-linked reagent.

Another experiment concerns the target T5, pm5 (Y15 and Y17 sulfated; Y16 not sulfated).
T5 construct: also called sulfated CCR8 N-terminal peptide pm5
Briefly: ELISA on coated peptide [cont.]. The method in brief:
as §2

The target of a further experiment is T6, pm2 (sulfated tyrosine(s) among Y15, Y16, Y17; which ones is not told (the underlining of Table 1 is lost in the text)).
T6 construct: also called sulfated CCR8 N-terminal peptide pm2
T6 sequence (peptide, as listed by the source): as above
Kind of experiment: ELISA on coated peptide [cont.]. The method in brief: as §2

For a further experiment, the target named is T7, pm3 (Y17 sulfated; Y15 and Y16 not sulfated).
T7 construct: also called sulfated CCR8 N-terminal peptide pm3
T7 sequence (peptide, as listed by the source): as above
Briefly: ELISA on coated peptide [cont.]. An outline of the steps: as §2

For the next experiment, the target named is T8, pm1 (sulfated tyrosine(s) among Y15, Y16, Y17; which ones is not told (the underlining of Table 1 is lost in the text)).
T8 construct: also called sulfated CCR8 N-terminal peptide pm1
T8 sequence (peptide, as listed by the source): as above
Kind of experiment: ELISA on coated peptide [cont.]. The method in brief:
as §2

In another experiment the target is T9, pm8 (Y15, Y16 and Y17 sulfated).
T9 construct: also called sulfated CCR8 N-terminal peptide pm8
T9 sequence (peptide, as listed by the source): as above
Briefly: ELISA on coated peptide [cont.]. The method in brief: as §2

The target in a further experiment is T10, pm6 (Y16 and Y17 sulfated; Y15 not sulfated).
T10 construct: also called sulfated CCR8 N-terminal peptide pm6
T10 sequence (peptide, as listed by the source): as above
Briefly: ELISA on coated peptide [cont.]. An outline of the steps: as §2

Experiment [9] deals with T1, human CCR8. Briefly: cell-based or functional assay. This is another data set of the same source.
Experiment [10] has as its target T2, human CCR8 with a SNAP-tag at the …. Kind of experiment: HTRF Tag-lite, inhibition of hCCL1-AF647 binding to SNAP-hCCR8 on HEK-293 cells. On the procedure:
as §1
This is another data set of the same source. (In general: TR-FRET usually uses a lanthanide donor and a delayed reading to cut background.)

Where “and” joins values, the source holds several entries; their conditions need not be identical. Identical values can stand only once. Like-named read-outs stand apart in the source and are kept apart here.

T5 sequence (peptide, as listed by the source): as above

B1: anti-CCR8 mAb 1-21 (antibody, human IgG1, kappa)
heavy: not shown
light: DIVMTQAAPSLSVTPGESASISCTSSKSLLHSNGNTYLYWFLQKPGQSPQLLIYRMSNLASGVPDRFSGSGSGTAFTLKISRVEAEDVGVYYCMQHREYPFTFGSGTKLEIKRTVAAPSVFIFPPSDEQLKSGTASVVCLLNNFYPREAKVQWKVDNALQSGNSQESVTEQDSKDSTYSLSSTLTLSKADYEKHKVYACEVTHQGLSSPVTKSFNRGEC
notes: Humanized mAb; Fc from human IgG1 allotype G1m17 with the terminal lysine deleted and the SDIE mutations (already in the entry)
Regarding B1, in the experiment with human CCR8 [1], the “ADCC % max lysis, HUT78 targets, NK donor 1” value came out at 30%; the “ADCC % max lysis, HUT78 targets, NK donor 2” value came out at 28%; the “ADCC EC50, HUT78 targets, NK donor 1” value came to 0.00643 nM; the “ADCC EC50, HUT78 targets, NK donor 2” value came to 0.00042 nM. Moreover, the “% of labelled cells” value with human CCR8 [2] was 32%. The “extrapolated top plateau of hCCL1 curve with 5 µg/mL mAb, protocol #3” value with human CCR8 [3] is 138000 % of hCCL1 (100 nM). Besides, in the experiment with human CCR8 [4], the “IC50 of CCL1-induced hCCR8 Gi2 signaling (BRET), pH 6.5” value was 0.025 µg/ml and 0.165 nM; the “IC50 of CCL1-induced hCCR8 Gi2 signaling (BRET), pH 7.4” value is 0.035 µg/ml and 0.232 nM. In the experiment with human CCR8 [5], the “residual hCCL1 (100 nM) Gi2 response, protocol #2, mAb 0.08 µg/mL” value was 74%; the “residual hCCL1 (100 nM) Gi2 response, protocol #2, mAb 0.4 µg/mL” value stood at 54%; the “residual hCCL1 (100 nM) Gi2 response, protocol #2, mAb 10 µg/mL” value was 40%; the “residual hCCL1 (100 nM) Gi2 response, protocol #3, mAb 0.05 µg/mL” value stood at 89%. Moreover, in the experiment with human CCR8 [5], the “residual hCCL1 (100 nM) Gi2 response, protocol #3, mAb 0.5 µg/mL” value is 63% and the “residual hCCL1 (100 nM) Gi2 response, protocol #3, mAb 5 µg/mL” value was 51%. Besides, in the experiment with human CCR8 [6], the “ADCP % max phagocytosis, HUT78 targets, MDM donor 9” value (from here on “ADCP % max phagocytosis”) is 9.65%. The “IC50 of CCL1-induced hCCR8 Gi2 signaling (BRET, HEK-293)” value with human CCR8 [7] is 0.035 µg/mL and 0.232 nM. Moreover, in experiment [8], the half-inhibitory concentration (IC50) – broadly, the concentration needed to halve the response being measured – was 0.09 µg/mL and 0.6 nM; the Ki is 0.05 µg/mL and 0.3 nM. For the same molecule, the binding result with pwt1 is listed as “binds”. The binding result with pm4 was “binds”. The binding result with pm5 is recorded as “binds”. Moreover, the binding result with pm2 is reported as “binds”. In addition, the binding result in the experiment with pm3 is “binds”. Besides, the binding result in the experiment with pm1 was “binds”. Besides, the binding result with pm8 was “binds”. The binding result with pm6 was “binds”.

B2: anti-CCR8 mAb 1-26 (antibody, human IgG1, kappa)
heavy: not shown
light: DIVMTQAAPSLSVTPGESASISCTSSKSLLHSNGNTYLYWFLQKPGQSPQLLIYRMSNLASGVPDRFSGSGSGTAFTLKISRVEAEDVGVYYCMQHREYPFTFGSGTKLEIKRTVAAPSVFIFPPSDEQLKSGTASVVCLLNNFYPREAKVQWKVDNALQSGNSQESVTEQDSKDSTYSLSSTLTLSKADYEKHKVYACEVTHQGLSSPVTKSFNRGEC
modifications: afucosylated Fc glycan
notes: Afucosylated humanized mAb; same chains as 1-21
For B2, in the experiment with human CCR8 [1], the “ADCC % max lysis, HUT78 targets, NK donor 1” value came to 22%; the “ADCC % max lysis, HUT78 targets, NK donor 2” value is 20%; the “ADCC EC50, HUT78 targets, NK donor 1” value stood at 0.00224 nM; the “ADCC EC50, HUT78 targets, NK donor 2” value was determined as 0.00216 nM. Also, in the experiment with human CCR8 [2], the “% of labelled cells” value came to 34%, a half-maximal response (EC50) required 0.4 nM and the “MFI fold change to isotype ctrl” value was 2.5 fold. Further, in the experiment with human CCR8 [6], the “ADCP % max phagocytosis” value was determined as 8.29%.

B3: anti-CCR8 mAb 1-34 (antibody, human IgG1, kappa)
heavy: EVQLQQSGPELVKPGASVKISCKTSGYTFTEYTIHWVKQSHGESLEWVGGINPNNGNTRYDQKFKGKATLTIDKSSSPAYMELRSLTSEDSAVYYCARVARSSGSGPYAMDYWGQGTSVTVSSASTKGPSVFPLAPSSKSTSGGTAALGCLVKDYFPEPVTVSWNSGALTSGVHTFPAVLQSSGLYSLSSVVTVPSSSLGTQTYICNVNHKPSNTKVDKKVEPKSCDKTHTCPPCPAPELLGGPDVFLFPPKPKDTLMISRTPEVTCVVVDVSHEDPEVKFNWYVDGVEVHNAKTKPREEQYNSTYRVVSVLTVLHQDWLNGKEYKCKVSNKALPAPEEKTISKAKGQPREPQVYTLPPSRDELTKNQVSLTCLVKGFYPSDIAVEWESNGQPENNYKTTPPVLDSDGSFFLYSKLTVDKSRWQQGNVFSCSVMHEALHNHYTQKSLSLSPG
light: DVVMTQTPLSLPVSLGDQASISCRCTQSLLHTNGDTYLHWYLQKPGQSPKLLIYKVSNRFSGVPDRFSGSGSGTDFTLKISRVEAEDLGVYFCSQSTHVPYTFGGGTKLEIKRTVAAPSVFIFPPSDEQLKSGTASVVCLLNNFYPREAKVQWKVDNALQSGNSQESVTEQDSKDSTYSLSSTLTLSKADYEKHKVYACEVTHQGLSSPVTKSFNRGEC
For the molecule B3, the “ADCP % max phagocytosis” value in the experiment with human CCR8 [6] amounted to 7.27%. Also, in the experiment with human CCR8 [9], the “ADCC % max lysis, HUT78 targets, NK donor 3” value was found to be 25%; the “ADCC % max lysis, HUT78 targets, NK donor 4” value came out at 28%; the “ADCC EC50, HUT78 targets, NK donor 3” value stood at 0.218 nM; the “ADCC EC50, HUT78 targets, NK donor 4” value stood at 0.053 nM.

B4: anti-CCR8 mAb 1-19 (antibody, human IgG1, kappa, V domains shown)
VH: EVQLVESGGGLVQPGRSLRLSCTASGFTFNTYAMNWVRQAPGKGLEWVARIRSKSNNYATYYAASVKGRFTISRDDSKSIAYLQMNSLKTEDTAVYYCVRGREAYYRYDGGYYAMDVWGQGTTVTVSS
VL: DIVMTQAAPSLPVTPGESASISCRSSKSLLHSNGNTYLYWFLQKPGQSPQLLIYRMSNLASGVPDRFSGSGSGTAFTLKISRVEAEDVGVYYCMQHLEYPFTFGSGTKLEIKR
notes: Humanized mAb, human IgG1 / kappa
As to B4, the IC50 in experiment [10] is 0.1 to 1 nM; in experiment [8], 0.02 µg/mL. Moreover, the “IC50 of CCL1-induced hCCR8 Gi2 signaling (BRET, HEK-293)” value with human CCR8 [7] was 0.048 µg/mL and 0.318 nM. In addition, in experiment [8], the Ki is 0.01 µg/mL and 0.06 nM. The binding result with pm4, with pm5, with pm2, with pm3, in the experiment with pm1 and with pm8 was “binds” in each case. Further, the binding result with pm6 is “binds”.
